The labels stand for the following.
B1: BsAb-2 (IL2RB_F09G**IL2RG_F16B) (bispecific antibody, human IgG4, V domains shown)
V domain 1: QVQLQESGPGLVKSSETLSLTCTVSGGSISSSDWWSWVRQPPGKGLEWIGEIDHSGSTNYNPSLMSRVTISVDKSKNQFSLKLSSVTAADTAVYFCARGSWELTDAFDIRGQGTLVTVSS
V domain 2: QVQLVESGGGLVKPGGSLRLSCAASGFTFSDYYMSWIRQAPGKGLEWVSYISSSGSTIYYADSVKGRFTISRDNAKNSLYLQMNSLRAEDTAVYYCARGDAVSITGDYRGQGTLVTVSS
notes: Heavy chain-only bispecific on silenced, stabilised human IgG4 Fc, knobs-into-holes, no light chains; not shown: C-terminal His-tag on the knob chain
B2: BsAb-6 (IL2RB_F18E**IL2RG_F16A) (bispecific antibody, human IgG4, V domains shown)
V domain 1: QVQLVESGGGVVQPGRSLRLSCAASGFTFSSYGMHWVRQAPGKEREWVAVISYDGSNKYYTDSVKGRFTISRDNSKNTLYLEMNSLRAEDTAVYYCARDLDYDVLTGDPVGGFDIWGQGTLVTVSS
V domain 2: B1 V domain 2 with Y50S, S56D, K65Q, I70L, K76E, Y80F
notes: as for B1
B3: BsAb-4 (IL2RB_F09G**IL2RG_F18A) (bispecific antibody, human IgG4, V domains shown)
V domain 1: B1 V domain 1
V domain 2: QVQLVESGGDLVKPGGSLRLSCAASGFTFSDYYMSWLRQAPGKELEWVSHISSSGTTTYYADSVEGRFTITRDNAKNSLYLQMNSLRAEDTAVYYCARGAAVAPGFDSRGQGTLVTVSS
notes: as for B1
B4: BsAb-1 (IL2RB_F09C**IL2RG_F16A) (bispecific antibody, human IgG4, V domains shown)
V domain 1: B1 V domain 1 with S14P, E16G, T23A, A97G, T104S
V domain 2: B1 V domain 2 with Y50S, S56D, K65Q, I70L, K76E, Y80F
notes: as for B1
B5: BsAb-3 (IL2RB_F09G**IL2RG_F16C) (bispecific antibody, human IgG4, V domains shown)
V domain 1: B1 V domain 1
V domain 2: B1 V domain 2 with S30N, Y50H, I70V, K76N, N84H
notes: as for B1
B6: BsAb-5 (IL2RB_F09K**IL2RG_F16B) (bispecific antibody, human IgG4, V domains shown)
V domain 1: B1 V domain 1 with G8S, S14P, D33N, D53S, M65K, K82R, A97G
V domain 2: B1 V domain 2
notes: as for B1

Residue numbers refer to the chain shown, from its start.

In general, EC50 (read off the curve) refers to the midpoint of the concentration-response curve. Low readings indicate a more potent agent, high ones a less potent agent.

The first assay deals with IL-21R (Sino Biological) (UniProt Q9HBE5 20-232). Description: Octet (BLI) off-rate, antibody captured on AHC sensors. On the procedure: (§1) All off-rate measurements were performed on an Octet Qk384 instrument (ForteBio), in 96-well microplates at 25° C. using anti-human IgG Fc capture (AHC, 18-5005) sensors with a shake speed of 1000 rpm. For off-rate determination, the antibodies/antibody fragments were loaded on the AHC sensors at 5 μg/mL. Following a short baseline in kinetics buffer (0.02% Tween20, 0.1% BSA, 0.05% sodium azide, 1X PBS). Offrate measurements were done for the following: human IL-2Rβ (AcroBiosystems), human IL-2Ry (Sino Biological), cynomolgus IL-2RP (Sino Biological), cynomolgus IL-2Rγ (expressed and purified in house using ExpiCHO expression system followed by Ni-NTA His-tag purification), mouse IL-2Rγ (Sino Biological), mouse IL-2Rβ (Sino Biological), human IL-2Rα (Sino Biological), IL-4R (Sino Biological), IL-7R (Sino Biological), IL-9R (R&D Systems) and IL-21R (Sino Biological). The following antibodies were used as positive controls to verify target binding and reagent quality: anti-human IL-9R (R&D Systems), anti-human IL-21R (R&D Systems), anti-human IL-7R (R&D Systems) and anti-human IL-4Ra (R&D Systems). The loaded sensors were then submerged in wells containing antigen at 100 nM concentration for association step. Dissociation was monitored in kinetics buffer. The capture surfaces were regenerated for 60 s. ForteBio data analysis software was used to fit the data to a 1:1 binding model to extract an association rate and dissociation rate.
IL-21R (Sino Biological), sequence (Q9HBE5 20-232 limits assumed): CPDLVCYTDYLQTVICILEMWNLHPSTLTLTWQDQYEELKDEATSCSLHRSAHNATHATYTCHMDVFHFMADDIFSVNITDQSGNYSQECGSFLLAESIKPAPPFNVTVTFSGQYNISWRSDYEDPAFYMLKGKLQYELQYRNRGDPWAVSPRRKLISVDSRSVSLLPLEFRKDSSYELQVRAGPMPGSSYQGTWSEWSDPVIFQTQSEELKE
(In general: In BLI a coated tip is dipped into the sample, and binding shifts an interference pattern.)
Turning to B1, the binding result was “no binding (tested: antigen at 100 nM)”.

On to B2, for which the binding result is on record as “no binding (tested: antigen at 100 nM)”.

Turning to B3, the binding result is “no binding (tested: antigen at 100 nM)”.

Turning to B4, the binding result is listed as “no binding (tested: antigen at 100 nM)”.

Turning to B5, the binding result is “no binding (tested: antigen at 100 nM)”.

Turning to B6, the binding result was “no binding (tested: antigen at 100 nM)”.

The target in the next assay is T1, IL-9R (R&D Systems) (UniProt Q01113 41-270, limits assumed).
T1 sequence (looked up): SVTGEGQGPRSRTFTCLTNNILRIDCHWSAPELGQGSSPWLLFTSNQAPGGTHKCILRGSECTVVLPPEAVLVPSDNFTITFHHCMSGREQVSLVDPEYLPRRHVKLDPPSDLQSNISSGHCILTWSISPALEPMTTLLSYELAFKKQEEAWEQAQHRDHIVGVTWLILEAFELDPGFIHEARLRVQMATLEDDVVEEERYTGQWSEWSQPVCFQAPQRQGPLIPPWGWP
The description is as above. How it is done: as §1
On to B1, for which the binding result was “no binding (tested: antigen at 100 nM)”.

With B2, the binding result is “no binding (tested: antigen at 100 nM)”.

Regarding B3, the binding result is on record as “no binding (tested: antigen at 100 nM)”.

For B4, the binding result is on record as “no binding (tested: antigen at 100 nM)”.

Take B5: the binding result was “no binding (tested: antigen at 100 nM)”.

B6: the binding result is “no binding (tested: antigen at 100 nM)”.

The target of the next assay is T2, human IL-2Rβγ receptor on primary human T-cells and NK-cells (PBMCs) (human, UniProt P14784 27-551; P31785 23-369).
T2 construct: Endogenous receptor on primary cells; also called dimeric IL-2Rβγ receptor complex
T2 sequence 1: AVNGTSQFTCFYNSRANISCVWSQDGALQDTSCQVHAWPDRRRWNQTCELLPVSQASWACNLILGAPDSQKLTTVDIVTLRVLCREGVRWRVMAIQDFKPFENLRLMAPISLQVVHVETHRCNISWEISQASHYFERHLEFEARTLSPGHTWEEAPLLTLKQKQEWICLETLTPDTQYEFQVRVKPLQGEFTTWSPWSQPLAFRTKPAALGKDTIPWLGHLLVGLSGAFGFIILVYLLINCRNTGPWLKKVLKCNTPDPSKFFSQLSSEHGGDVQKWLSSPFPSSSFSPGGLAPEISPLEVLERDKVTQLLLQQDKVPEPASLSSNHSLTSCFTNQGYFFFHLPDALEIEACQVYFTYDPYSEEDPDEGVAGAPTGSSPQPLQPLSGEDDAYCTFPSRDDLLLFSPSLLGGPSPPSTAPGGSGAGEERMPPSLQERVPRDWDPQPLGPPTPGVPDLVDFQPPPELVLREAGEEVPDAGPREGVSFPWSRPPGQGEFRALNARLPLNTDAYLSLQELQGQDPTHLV
T2 sequence 2: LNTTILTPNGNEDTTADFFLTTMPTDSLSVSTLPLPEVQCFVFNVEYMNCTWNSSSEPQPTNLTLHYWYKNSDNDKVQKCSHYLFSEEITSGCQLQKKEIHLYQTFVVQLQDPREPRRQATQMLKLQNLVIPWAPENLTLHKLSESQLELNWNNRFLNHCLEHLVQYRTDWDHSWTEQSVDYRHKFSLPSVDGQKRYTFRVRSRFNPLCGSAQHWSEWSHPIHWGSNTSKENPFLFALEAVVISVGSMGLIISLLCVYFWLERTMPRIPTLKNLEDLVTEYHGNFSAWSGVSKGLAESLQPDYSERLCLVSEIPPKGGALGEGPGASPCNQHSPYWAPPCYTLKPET
Briefly: flow cytometry cell binding on human CD8+ T-cells (PBMC), gMFI as fold over secondary antibody only. On the procedure:
All washes and dilutions of cells, antibodies, and reagents were performed using flow buffer (1X PBS, 1% BSA, 0.1% NaN3, pH 7.4). Staining was performed in a round-bottom 96-well plate (Corning) seeded at 100,000 cells/well, and all incubations were performed at 4° C. or on ice. […] The cells were washed twice with 200 μL flow buffer. The cells were then incubated for 30 minutes with detection antibody (Goat F(ab′)2 Anti-Human IgG-PE, Southern Biotech) at 0.625 μg/mL in flow buffer. Following 2 more washes, the cells were resuspended in a final volume of 150 μL of flow buffer. The cells were analyzed on a BD FACSCelesta or a Guava easyCyte 8-HT flow cytometer. At least 3000 events were collected, and PE geometric mean fluorescence intensity was plotted as a fold over background (cells incubated with secondary detection antibody only). In some secondary screens involving human or cynomolgus PBMCs, an additional CD4 antibody (BioLegend) and/or CD8 antibody (BioLegend) was included to further characterize cell binding.
For orientation: A flow cytometer gives signals particle by particle.
B1: the “EC50 (read off the curve)” value is around 10 nM.

Consider B2, for which the “EC50 (read off the curve)” value is around 5 nM.

Turning to B5, the “EC50 (read off the curve)” value is around 5 nM.

The values are drawn from patent US20260102487A1 (Amgen, published 2026).
